Assay [1] has as its target T1, cynomolgus monkey E-selectin, cell-surface expressed (cynomolgus monkey, UniProt P16581 22-610 (human entry)).
T1 construct: also called CHO-cynomolgus monkey E-selectin cells; cynomolgus monkey CHO-E
T1 chain: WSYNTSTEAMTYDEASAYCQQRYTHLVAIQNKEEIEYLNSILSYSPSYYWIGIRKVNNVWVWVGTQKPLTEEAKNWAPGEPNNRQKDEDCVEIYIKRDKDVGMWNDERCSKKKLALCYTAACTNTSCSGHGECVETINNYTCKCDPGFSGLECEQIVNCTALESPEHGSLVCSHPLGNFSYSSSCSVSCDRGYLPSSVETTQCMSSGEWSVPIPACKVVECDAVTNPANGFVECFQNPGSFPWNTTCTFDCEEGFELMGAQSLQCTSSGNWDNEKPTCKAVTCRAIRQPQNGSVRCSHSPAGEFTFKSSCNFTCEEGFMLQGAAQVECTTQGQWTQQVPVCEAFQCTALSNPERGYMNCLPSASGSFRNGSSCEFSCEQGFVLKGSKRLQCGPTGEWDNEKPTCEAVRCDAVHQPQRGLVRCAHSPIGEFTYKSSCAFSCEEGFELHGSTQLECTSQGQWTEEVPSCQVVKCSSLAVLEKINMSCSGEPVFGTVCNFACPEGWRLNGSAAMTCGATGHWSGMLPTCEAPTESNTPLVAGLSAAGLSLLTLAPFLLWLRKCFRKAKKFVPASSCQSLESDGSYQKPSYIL
Description: neutralization of sialyl Lewis A ligand binding, CHO cells, competition ELISA. The method, then:
(§1) In a static ligand cellular adhesion assay, horse radish peroxidase (HRP) conjugated E-selectin ligand (sialyl Lewis antigen) and E-selectin antibodies compete for binding to human or cynomolgus E-selectin expressed on Chinese hamster ovary (CHO) cells. The ability of anti-E-selectin antibodies to neutralize ligand binding was assessed in a static neutralization assay using a competition enzyme-linked immunosorbent assay (ELISA) to evaluate the neutralization of the sialyl Lewis antigen to Chinese hamster ovary cells (CHO) engineered to express human or cynomolgus monkey E-selectin.
(§2) CHO cells expressing E-selectin were seeded at 12,500 cells per well into a 96 well tissue culture plate and incubated at 37° C., 5% CO₂ for 48 hours to form a confluent monolayer. Plates were subsequently washed twice with 200 μL of calcium magnesium free PBS. Anti-E-selectin antibodies or an IgG1 isotype control (IgG control) were added to the assay in the presence of a small synthetic conjugate of biotinylated, sialyl Lewis A polyacrylamide (Carbosynth LLC, OS45446) or sialyl Lewis X polyacrylamide (Glycotech, 01-045) with streptavidin/horseradish peroxidase (100 μL total) and incubated at 37° C., 5% CO₂ for 2 hours. […] Reactions were stopped using 2 M of sulfuric acid and absorbance was read at 450 nm (Spectramax M5e). Data were analyzed and graphed using GraphPad Prism software (Version 8.0.2).
In general terms: In an ELISA, binding on a coated surface is turned into a signal by an enzyme label.

Assay [2] addresses T2, human E-selectin, cell-surface expressed (human, UniProt P16581 22-610).
T2 construct: also called CHO-human E-selectin cells; human CHO-E
T2 sequence: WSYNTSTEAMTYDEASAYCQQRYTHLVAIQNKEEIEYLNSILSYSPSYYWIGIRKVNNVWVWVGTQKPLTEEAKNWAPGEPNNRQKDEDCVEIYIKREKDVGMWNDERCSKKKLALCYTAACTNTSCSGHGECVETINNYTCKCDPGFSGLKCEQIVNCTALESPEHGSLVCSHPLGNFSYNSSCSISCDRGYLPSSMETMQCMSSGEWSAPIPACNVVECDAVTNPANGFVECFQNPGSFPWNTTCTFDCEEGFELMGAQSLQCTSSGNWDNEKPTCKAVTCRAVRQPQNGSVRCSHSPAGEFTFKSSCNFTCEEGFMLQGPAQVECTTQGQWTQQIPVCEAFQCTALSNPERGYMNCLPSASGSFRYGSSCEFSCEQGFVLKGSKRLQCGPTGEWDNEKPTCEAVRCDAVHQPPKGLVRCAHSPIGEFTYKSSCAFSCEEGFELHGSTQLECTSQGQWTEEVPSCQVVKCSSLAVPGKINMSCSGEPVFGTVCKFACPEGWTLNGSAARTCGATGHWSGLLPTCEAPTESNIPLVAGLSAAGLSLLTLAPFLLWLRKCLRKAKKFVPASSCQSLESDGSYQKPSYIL
The assay is described as above. The method, then: as §1, §2

The target in assay [3] is T3, cynomolgus monkey E-selectin extracellular domain with 10 His purification tail (cynomolgus monkey, UniProt P16581 22-554 (human entry)).
T3 construct: also called cynomolgus E-selectin; truncated cynomolgus monkey E-selectin
T3 chain: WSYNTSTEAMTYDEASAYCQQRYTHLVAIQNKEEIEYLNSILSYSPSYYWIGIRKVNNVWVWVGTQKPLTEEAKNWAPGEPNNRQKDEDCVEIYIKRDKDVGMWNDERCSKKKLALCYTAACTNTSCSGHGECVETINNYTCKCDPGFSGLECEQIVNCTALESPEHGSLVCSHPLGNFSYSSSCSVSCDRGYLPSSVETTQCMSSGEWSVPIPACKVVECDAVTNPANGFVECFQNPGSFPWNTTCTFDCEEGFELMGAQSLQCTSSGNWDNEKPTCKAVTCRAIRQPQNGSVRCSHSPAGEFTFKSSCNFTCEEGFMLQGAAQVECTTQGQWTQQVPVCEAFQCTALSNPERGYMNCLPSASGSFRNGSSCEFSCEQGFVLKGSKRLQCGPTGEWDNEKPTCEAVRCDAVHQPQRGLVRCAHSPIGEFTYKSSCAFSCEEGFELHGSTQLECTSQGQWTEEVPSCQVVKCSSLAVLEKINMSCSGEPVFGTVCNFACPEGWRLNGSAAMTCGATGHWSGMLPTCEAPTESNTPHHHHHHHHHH
As to the kind of experiment: AlphaLISA competition vs sialyl Lewis A-PAA-biotin; AlphaLISA neutralization assay (ligand competition), not SPR. The protocol:
The neutralization ability of anti-E-selectin antibodies was measured in an AlphaLISA homogenous competition assay. […] This was incubated at room temperature for 15 minutes, followed by addition of 1.4 μL of human, mouse or cynomolgus monkey E-selectin added to a final concentration of 7 nM. This was again incubated at room temperature for 15 minutes. To this, 1.4 μL AlphaLISA beads was added (Ni-donor/SA-acceptor) for a final assay concentration of 10 μg/mL. This was incubated in the dark at room temperate for at least 10 hours. The plates were then read using the AlphaLISA protocol (Envision).

Usually IC50 stands for the concentration that inhibits the measured activity by half. The EC50 is the concentration that produces a half-maximal response.

B1: optimized anti-E-selectin antibody 1444 (antibody, human IgG1, kappa, V domains shown)
VH: EVQLVESGGGLVQPGGSLRLSCAASGYAIRSAYMHWVRQAPGKGLEWVARIDPANGNTIYVDSVTGRFTISADNAKNSAYLQMNSLRAEDTAVYYCAMDLYSTSEYWGQGTLVTVSS
VL: DIQMTQSPSSLSASVGDRVTITCKTSQNIERYLNWYQQKPGKAPKLLIYAASSLQSGVPSRFSGSGSGTDFTLTISSLQPEDFATYFCLQDNAWPLTFGQGTKVEIKR
notes: effector-null human IgG1, kappa
Consider B1, for which the IC50 in assay [1] was in the range of 1.47 to 2.65 nM; in assay [2], 1.88 to 2.89 nM.

B2: anti-E-selectin antibody 0158 chimera (antibody, human IgG1, kappa, V domains shown)
VH: QVQLKESGPGLVQPSETLSLTCTVSGFSISTYNVHWLRQPPGKGLEWMGMMWSGGSPDYNSALKSRLSISRDTSKNQVFLKMNSLQSEDTTTYYCARWGGGFDYWGQGVMVTVSS
VL: DIVLTQSPTTLSVTPGETVSLSCRASHSIGTNLHWYQQKTNESPRLLIKFTSQSISGIPSRFSASGSGTDFTLNINNVEFDDVSSYFCQQTQSWPLTFGSGTKLEIKR
notes: rat VH/VL on effector-null human IgG1 and human kappa
As to B2, the EC50 in assay [3] was < 1 nM.

These data come from patent US20240076386A1 (Pfizer, published 2024).
